Experimental data reported in patent publication US9889179B2, “FGF-18 compound dosing regimen” (MERCK PATENT GMBH, priority 2014, dated 2018).
“Also recorded” adds a separate entry of the source.

Assays:
[1] = test system: rat model of OA (ACLT with tMx); test: ACLT+tMx rat model of OA, intracycle dosing frequency of sprifermin (Example 6); format: in vivo, male Lister Hooded Rats
Protocol: The goal of this study was to evaluate the effect of different intracycle dosing frequency of the same total dosage (3×1 μg) of sprifermin on cartilage volume in a rat model of OA. The anterior cruciate ligament transection (ACLT) with resection of the medial meniscus (tMx) was performed as disclosed in Example 1. Joints from male Lister Hooded Rats (200-260 g, Charles River) were used in this study. Animals were euthanized 18 weeks post-surgery.
The changes in the joint are related to clinical assessments in OA (cartilage loss, osteophytes, subchondral sclerosis). One μg sprifermin in saline was injected three times either weekly, every 2nd, every 3rd, every 4th or every 5th week and compared to appropriate vehicle groups. Body weight, joint diameters and clinical health scores were investigated weekly.

[2] = test system: Primary articular porcine chondrocytes; test: Porcine chondrocyte proliferation with or without IL1α challenge (Example 4); format: cell-based, pig; conditions: 100 ng/mL; for increase in the cell number versus control (medium, no IL1α): 8 days of culture; for stimulation of proliferation versus control (medium, IL1α 10 ng/mL): 8 days
Protocol: Porcine chondrocytes were isolated from the cartilage of a femoral head of a pig hip (pigs were approximately one year old). After dissection of the joints, the cartilage was harvested and digested for 45 minutes with collagenase 0.25% ( 1/10 dilution of collagenase NBG4 2.5% in HAM's F12) at room temperature. The loosened cells were discarded and the cartilage further digested overnight with collagenase 0.1% ( 1/25 dilution of collagenase NBG4 2.5% in HAM's F12) at 37° C. to extract the chondrocytes. For this study, the chondrocytes were cultured in a monolayer.
Primary articular porcine chondrocytes were stimulated or not with 10 ng/mL IL1α and were either treated immediately or 6 hours later with anakinra 100 ng/mL and/or trFGF-18 100 ng/mL. Each condition was performed in 4 or 6-plicate. As a control, cells were also cultured with anakinra alone, trFGF-18 alone or in the absence of any treatment (medium).
Pre-culture: After cell isolation porcine chondrocytes were inoculated at 20,000 cells/cm^2 and cultivated for one week in complete HAM's F12. Cells were then harvested with accutase, counted and used as described below.
For cells treated directly with anakinra: Chondrocytes were inoculated in a 24-well plate at 15,000 cells/well in 0.5 mL of complete HAM's F12. Then 0.25 mL of trFGF-18 400 ng/mL and/or 0.25 mL of anakinra 400 ng/mL were added to the cells. In the challenged samples, 10 μL of IL1α at 1,000 ng/mL were also added to the cells. trFGF-18, anakinra and IL1α were all diluted in complete HAM's F12. The final volume in the culture well was adjusted to 1 mL with complete HAM's F12. Final concentrations were 10 ng/mL IL1α, 100 ng/mL trFGF-18 and 100 ng/mL anakinra and the total culture time was eight days. A complete medium change was performed after four days. N=4.
For cells treated with anakinra and trFGF-18 6 hours after the IL1α challenge: Chondrocytes were inoculated in a 24-well plate at 15,000 cells/well in 1 mL of complete HAM's F12 containing or not containing IL1α 10 ng/mL. After 6 hours the medium was removed and replaced with 0.25 mL trFGF-18 400 ng/mL and/or 0.25 mL of anakinra 400 ng/mL. In the challenged samples, 0.25 mL of IL1α at 40 ng/mL was also added to the cells. trFGF-18, anakinra and IL1α were all diluted in complete HAM's F12. The final volume in the culture well was adjusted to 1 mL with complete HAM's F12. Final concentrations were 10 ng/mL IL1α, 100 ng/mL trFGF-18 and 100 ng/mL anakinra and the total culture time was eight days. A complete medium change was performed after four days. N=6.
After eight days of culture, cells were harvested with accutase and resulting cell suspensions were analyzed for cell concentration and cell viability with a ViCell™ cell analyzer (from Beckman Coulter). […]

B1: trFGF-18: recombinant truncated form of human FGF-18 (170 amino acids, SEQ ID NO: 2), produced in E. coli (protein)
chain: MEENVDFRIHVENQTRARDDVSRKQLRLYQLYSRTSGKHIQVLGRRISARGEDGDKYAQLLVETDTFGSQVRIKGKETEFYLCMNRKGKLVGKPDGTSKECVFIEKVLENNYTALMSAKYSGWYVGFTKKGRPRKGPKTRENQQDVHFMKRYPKGQPELQKPFKYTTVTK
modifications: Recombinant truncated FGF-18(trFGF-18)
- cartilage denudation, stereology ([1]; 3 x 1 μg/joint, 18 weeks post-surgery): prevented more or less complete cartilage denudation
- cartilage volume on medial tibia ([1]; One μg/joint once every 3rd week, three injections in total, listed as rhFGF-18): statistically significant difference over saline; also recorded: most beneficial structural outcome
- cartilage volume compared to placebo ([1]; all groups treated (weekly to every 5th week)): higher cartilage volume values
- joint diameters ([1]; between injections every 2nd, 3rd or 4th week): No significant differences
- AUC of joint diameters ([1]; injected every 5th week): the same as with saline injections
- joint diameters (AUC of joint diameter difference) ([1]; injections in week 3, 4 and 5 versus week 3, 8 and 13): significantly higher
- body weight gain ([1]; intra-articular injections, 3 x 1 μg): no influence
- increase in the cell number versus control (medium, no IL1α) ([2]; first experiment (direct treatment, N=4)): 11.25 fold
- increase in the cell number versus control (medium, no IL1α) ([2]; second experiment (6-hour delay, N=6)): 7.75 fold
- stimulation of proliferation versus control (medium, IL1α 10 ng/mL) ([2]; first experiment (direct treatment)): 2.38 fold
- stimulation of proliferation versus control (medium, IL1α 10 ng/mL) ([2]; second experiment (6-hour delay)): 2.44 fold
